Laboratory results: US20160169885A1

Assays:
[1] = biological target: Ac-N-Asp-Gly-Asp-Ala-Gly-Tyr-Ala-Gly-Leu-Arg-Gly-Ala-Gly-diamino-ethyl-Bodipy FL; test: cell-based or functional assay
[2] = system: Ac-N-Asp-Gly-Asp-Ala-Gly-Tyr-Ala-Gly-Leu-Arg-Gly-Ala-Gly-diamino-ethyl-Bodipy FL

Row | Substance | detection limit of the cleavage products in whole rat blood (reaction in 1×PBS, then mixed with inhibitor-treated blood), agarose gel [1] [nM] | cleavage of the substrate, agarose gel electrophoresis, 1×PBS [2]
1 | bovine pancreatic trypsin (from UniProt P00760 24-246) (enzyme) | 50 | 
2 | bovine pancreatic α-chymotrypsin |  | after cleavage by α-chymotrypsin, migrates as two bands toward the cathode, representing a primary ... and a secondary ... α-chymotrypsin cleavage product
